# Data from the nanobody polyreactivity screen of Harvey et al. (2022).
# Assay: yeast display, Sf9 membrane polyspecificity reagent, FACS + sequencing; frameworks hold sequencing errors
# In short: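 Galactose-induced (36–48 hours) yeast carrying a synthetic nanobody display library were exposed to 10% biotinylated, detergent-solubilized Sf9 membrane reagent at 4 °C for 1 hour. FACS followed streptavidin microbead enrichment, using low and high (top ~1%) gates for expression (anti-HA) and reagent binding (streptavidin). Colony PCR, MiSeq 2 × 250 sequencing and CDR-length filtering followed. Labels for polyreactivity reflect the gate of origin.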
row,Sequence,polyreactivity (PSR sort gate)
1,QVQLVESGGGLVQAGGSLRLSCAASGFTFTWYAMGWYRQAPGKQRELVASISRSGGSTYYAESVKGRFTISRDNAKNTVYLQMNSRKPEDTAVYYCAAVSRTRSYDYWGQGTQVTVSS,high polyreactivity
2,QVQLVESGGGLVQAGGSLRLSCAASGFTFTYNTMGWYRQAPGKERELVAAISALGTSTYYADSVKGRFTISRDNAKNTVYLQMNSLKPEDTEVYYCAAAYRIGSGYWGQGTQVTVSS,high polyreactivity
3,QVQLVESGGGLVQAGGSLRLSCAASGFTFTYNTMGWYRQAPGKEREMVAAISSTGGSTYYADSVKGRFTISRDNAKNTVYLQMNSLKPEDTAVYYCNACLPFSGRKRYGYWGQGTQVTVSS,high polyreactivity
4,QVQLVESGGGLVQAGGSLRLSCAASGFTFTYYAMGWNRQEPGKERELVAAISGNGGSTYYADSVKGRFTISRDNAKNTVYLQMNRLKPEDTAVYYCNALPTSVGRWYRGDYWGQGTLVTVSS,high polyreactivity
5,QVQLVESGGGLVQAGGSLRLSCAASGFTFTYYAMGWYRQAPGKERELVAAISASGDSTYYADSVKGRFTISRDNAKNTVYLQMNILKPEDTAVYYCAALYWYSRSSWDYDYWGQGTQVTVSS,high polyreactivity
6,QVQLVESGGGLVQAGGSLRLSCAASGFTFTYYTMGWYRQATGKERELVAGISRSGGSTYYADSVKGRFTISRDYAKNTVYLQMNSLKPVDTAVYYCAAGSIQYRPTYTGDYWGQGTQVTVSS,high polyreactivity
7,QVQLVESGGGLVQAGGSLRLSCAASGFTFVDYAMGWYRQAPGKERELVAAISSSGDSTYYADSVKGRFTISRYNAKNTVYLQMNSLKPEDNAVYYCAAEYDREEYSGYDYLGQGTQVTVSS,low polyreactivity
8,QVQLVESGGGLVQAGGSLRLSCAASGFTFVFYAMGWYRQAPGKERELVAAISSGGGGTYYADSVKGRFTISRDNAKNTVYLQMNSLKPEDTAVYYCNTRYHKVYYGNDYWGQGTQVTVSS,high polyreactivity
9,QVQLVESGGGLVQAGGSLRLSCAASGFTFVGNAMGWYRQAPGKERELVAAIRWSSGSTYYADSVKGRFTISRDNAKNTVYLQMNSLKPEDTAVYYCNAVYSVFYEYDYCGQGTQVTVSS,low polyreactivity
10,QVQLVESGGGLVQAGGSLRLSCAASGFTFVGYAMGWYRQAPGKERELVASINYSGGSTYYADSVKGRFTISRDNAKNTVYVQMNSLNPEDTAVYYCAAGGYPWYLRRGGFACYDYWGQGTQVTVSS,low polyreactivity
11,QVQLVESGGGLVQAGGSLRLSCAASGFTFVGYPLGWYRQATGKERELVAAISVSGGRTYYADSVKGRFTISRDNAMNTVYLQMKSLNPEDTAVYYCNAASPSYADFDYWGQGTQVTVSS,high polyreactivity
12,QVQLVESGGGLVQAGGSLRLSCAASGFTFVINDLGWYRQAPGKERELVADITSGGDTYYADSVKGRFTISRDNAKNTVYLQMNSLKPEDTAFYYCAADIYPDWIYLLYGYWGQGTQVTVSS,low polyreactivity
13,QVQLVESGGGLVQAGGSLRLSCAASGFTFVINDMGWNRQAPGKERELVADITSGGDTYYADSVKGRFTISRDNAKNTVDLQMNSLKPEDTAVYYCAADIYPDWIYLLYGYWGQGTQVTVSS,low polyreactivity
14,QVQLVESGGGLVQAGGSLRLSCAASGFTFVKNAMGWYRQAPGKERELVAALSSRGGSTYYADSVKGRFTISRDNAKNTVYLQMNSLKPEDTAVYYCATERERTMGYWGQGTQVTVSS,high polyreactivity
15,QVQLVESGGGLVQAGGSLRLSCAASGFTFVPYAMGWYRQAPGKERELVAAISGSGGSTYYADSVKGRFTISRDNAKNTVYLQMNSLKPEDTAVYYCNADRRWAYYWGQGTQVTVSS,high polyreactivity
16,QVQLVESGGGLVQAGGSLRLSCAASGFTFVRYAMGWYRQAPGKERELVAAISSGGRTYYADSVKGRFTISRDNAKNTVYLQMNSLKPEDTAVYYCAADTKFGYGYWGQGTQVTVSS,high polyreactivity
17,QVQLVESGGGLVQAGGSLRLSCAASGFTFVRYAMGWYRQAPGKERELVAAISSGGRTYYADSVKGRFTISRDNAKNTVYLQMNSLKPEDTAVYYCAAEKVGTRPSRDYDYWGQGTQVTVSS,high polyreactivity
18,QVQLVESGGGLVQAGGSLRLSCAASGFTFVRYAMGWYRQAPGKERELVAAISSSGSSTYYADSVKGRFTISRDHEKNTVYLQMNSLKPEDTAVYYCNARAGRGEDYWGQGTQVTVSS,low polyreactivity
19,QVQLVESGGGLVQAGGSLRLSCAASGFTFVRYAMGWYRQAPGKESEFVASISARGGNTFYADSVKGRFTISRDNAKNTVYLQMNSLKPEDTAVYYCAKPGPYGTGYGYWGQGTQVTVSS,high polyreactivity
20,QVQLVESGGGLVQAGGSLRLSCAASGFTFVRYVMGWYRQAPGKERELVAAISRSGGSTHYADSVKGRFTISRDNAKNTVYLQMNSLKPEDTAVYYCAAASPRWPGQGDYWGQGTQVTVSS,high polyreactivity
21,QVQLVESGGGLVQAGGSLRLSCAASGFTFVRYVMGWYRQAPGKERELVAAISRSGGSTHYADSVKGRFTISRDNAKNTVYLQMNSLKPEDTAVYYCADASPRWPGQGDYWGQGTQVTVSS,high polyreactivity

row,Sequence,polyreactivity (PSR sort gate)
1,QVQLVESGGGLVQAGGSLRLSCAASGFTFVSNAMGWYRQAPGKERELVAVISSGGSTTYADSVKGRFTISRDNAKNTVYLQMNSLKPEDTAVYYCATTNYQDSYEGGDYWGQGTQVTVSS,low polyreactivity
2,QVQLVESGGGLVQAGGSLRLSCAASGFTFVSYAMGWYRQAPGKERELVASITWTGGSTYYADSVKGRFTISRDNAKNTVYLQMNSLKPEDTAVYYDYWGQGTQVTVSS,low polyreactivity
3,QVQLVESGGGLVQAGGSLRLSCAASGFTFVTNAMGWYRQAPGKERELVAAISWNDDDTYYADSVKGRFTISRDNAKNTVYLQMNSLKPEDTAVYYCAKDEYRVKWWGWDIYDYWGQGTQVTVSS,low polyreactivity
4,QVQLVESGGGLVQAGGSLRLSCAASGFTFVWYTMGWYRQAPGKERELVAAISSSGGTTYYADSVKGRFTISRDNAKNTVYLQMNSLKPEDTAVYYCNVAYFYTTPTRGYNYWGQGTQVTVSS,high polyreactivity
5,QVQLVESGGGLVQAGGSLRLSCAASGFTFVYNAMGWYRPAPGKERELVAAITSGGNTYYADSVKGRFTISRDNAKNTVYLQMNSLKPEDTAVYYCAKRGYGRYYAYDYWGQGTQVTVSS,high polyreactivity
6,QVQLVESGGGLVQAGGSLRLSCAASGFTFVYSVMGWYRQAPGKERELVAAINAGGGSTYYADSVKGRFTISRDNAKNTVYLQMNSLKPEDTAVYYCNARVRVRLGRNWSSYYYWGQGTQVTVSS,high polyreactivity
7,QVQLVESGGGLVQAGGSLRLSCAASGFTFVYYAMGWYRQAPGKEREFVATISSRGDSTYYADSVKGRFTISRDNAKNTVYLQMNSLKPEDTAVYYCAADYDRKTRYGYLGQGTQVTVSS,low polyreactivity
8,QVQLVESGGGLVQAGGSLRLSCAASGFTFVYYAMGWYRQAPGKERELVAAISRGGSTYYADSVKGRFTISRDNAQNPVYLQMNSLKPEDTAVYYCNAKKSGHYVSYPAYDYWGQGTQVTVSS,low polyreactivity
9,QVQLVESGGGLVQAGGSLRLSCAASGFTFVYYAMGWYRQAPGKERELVAAISRSGGSTYYADSVKGRFTISRDNAKNTVNLQMNSLKPEDTAVYYCAARKTYGSRLSYEYWGQGTQVTVSS,high polyreactivity
10,QVQLVESGGGLVQAGGSLRLSCAASGFTFVYYTMGWYRPAPRKVRELVAAISSSGGRTSYADSVKGLFTISRDNAKNTVYLQMNSLKPEDTAVYYCAARAYPTWRTYYYWGQGTQVTVSS,high polyreactivity
11,QVQLVESGGGLVQAGGSLRLSCAASGFTFWANAMGWYRQAPGKERELVAAISWSGGSTTYADSVKGRFTISRDNAKNTVYLQMNSLKPEETAVYYCATDYGHYVTYRLSDYWGQGTQVTVSS,low polyreactivity
12,QVQLVESGGGLVQAGGSLRLSCAASGFTFWFYAMGWYRQAPGKEREFVAGISRRGGSTYYADSVKGRFTISRDNAKNTVYLQMNSLKPEDTAVYYCASRQFHNGVTTAGYGYWGQGTQVTVSS,high polyreactivity
13,QVQLVESGGGLVQAGGSLRLSCAASGFTFWRNTMGCSRQAPGKETEFVAAIDWSGGSTTYAVSVKGRFTFSRDNAKNSVYLQMNSLKPEDTAVYYCAAAERRRHYWWGQESDYWGQGTQVTVSS,low polyreactivity
14,QVQLVESGGGLVQAGGSLRLSCAASGFTFWRYAMGWYRQAPGKDRELVAAISWRGSSTYYADSVKGRFTISRDNAMNTVYLQMNSLKPEDTAVSYCARYQSTYDSTYNYWGQGTQVTVSS,high polyreactivity
15,QVQLVESGGGLVQAGGSLRLSCAASGFTFWRYAMGWYRQAPGKERELVAAISRNGGRTYYADSVKGRFTISRDNAKNTVYLQMNSLKPEDTAVYYCAADSDIEYEYWGQGTQVTVSS,high polyreactivity
16,QVQLVESGGGLVQAGGSLRLSCAASGFTFWRYAMGWYRQAPGKERELVAAISRTGGRTYYADSVKGRFTISRDNAKNTVYLQMNSLKPEDTAVYYCAAVKYETYRYNYDYWGQGTQVTVSS,high polyreactivity
17,QVQLVESGGGLVQAGGSLRLSCAASGFTFWVYAMGWYRQATGKEREFVASISWTGDTTYYADSVKGRFTISRDNAKNTVYLQMNSLKPEDTAVYYCAVDTILGYDYWGQGTQVTVSS,low polyreactivity
18,QVQLVESGGGLVQAGGSLRLSCAASGFTFWYNDMGWYRQAPGKEREFVAAITTSGGNTYYADSVKGRFTISRDNAKNTVYLNMNSLIPEDTAVYYCAAEEGSSDATGYDYWGQGTQVTVSS,low polyreactivity
19,QVQLVESGGGLVQAGGSLRLSCAASGFTFWYNDMGWYRQAPGKEREFVAAITTSGGNTYYADSVKGRFTISRDNAKNTVYLQMNSLKPEDTAVYYCAAEEGSSDATGYDYWGQGTQVTVSS,low polyreactivity
20,QVQLVESGGGLVQAGGSLRLSCAASGFTFWYYAMGWYRQAPGKEREFVASISWNGGRTYYADSVKGRITISRDNAKNTVYLQMNSLKPEDTAVYYCATRVIYSFTDLKGDYWGQGTLVTVSS,high polyreactivity
